Data on eight proteins can be found in article PMC10047360.

The nature of data set [1]: Western blot of overexpressed LRP6. As to conditions: glycan changed form; control: wild-type HEK293T cells.
The nature of data set [2]: Western blot, mature upper band, B3GnT2-/- HEK293T. Conditions: glycan lost; control: wild-type LRP6.
A short description of data set [3]: cell-surface HiBiT/LgBiT luminescence to mCherry ratio. Conditions: glycan changed form; control: HiBiT-LRP6-mCherry alone.

B1: LRP6: B3GnT2−/− (protein)
parent chain: MGAVLRSLLACSFCVLLRAAPLLLYANRRDLRLVDATNGKENATIVVGGLEDAAAVDFVFSHGLIYWSDVSEEAIKRTEFNKTESVQNVVVSGLLSPDGLACDWLGEKLYWTDSETNRIEVSNLDGSLRKVLFWQELDQPRAIALDPSSGFMYWTDWGEVPKIERAGMDGSSRFIIINSEIYWPNGLTLDYEEQKLYWADAKLNFIHKSNLDGTNRQAVVKGSLPHPFALTLFEDILYWTDWSTHSILACNKYTGEGLREIHSDIFSPMDIHAFSQQRQPNATNPCGIDNGGCSHLCLMSPVKPFYQCACPTGVKLLENGKTCKDGATELLLLARRTDLRRISLDTPDFTDIVLQLEDIRHAIAIDYDPVEGYIYWTDDEVRAIRRSFIDGSGSQFVVTAQIAHPDGIAVDWVARNLYWTDTGTDRIEVTRLNGTMRKILISEDLEEPRAIVLDPMVGYMYWTDWGEIPKIERAALDGSDRVVLVNTSLGWPNGLALDYDEGKIYWGDAKTDKIEVMNTDGTGRRVLVEDKIPHIFGFTLLGDYVYWTDWQRRSIERVHKRSAEREVIIDQLPDLMGLKATNVHRVIGSNPCAEENGGCSHLCLYRPQGLRCACPIGFELISDMKTCIVPEAFLLFSRRADIRRISLETNNNNVAIPLTGVKEASALDFDVTDNRIYWTDISLKTISRAFMNGSALEHVVEFGLDYPEGMAVDWLGKNLYWADTGTNRIEVSKLDGQHRQVLVWKDLDSPRALALDPAEGFMYWTEWGGKPKIDRAAMDGSERTTLVPNVGRANGLTIDYAKRRLYWTDLDTNLIESSNMLGLNREVIADDLPHPFGLTQYQDYIYWTDWSRRSIERANKTSGQNRTIIQGHLDYVMDILVFHSSRQSGWNECASSNGHCSHLCLAVPVGGFVCGCPAHYSLNADNRTCSAPTTFLLFSQKSAINRMVIDEQQSPDIILPIHSLRNVRAIDYDPLDKQLYWIDSRQNMIRKAQEDGSQGFTVVVSSVPSQNLEIQPYDLSIDIYSRYIYWTCEATNVINVTRLDGRSVGVVLKGEQDRPRAVVVNPEKGYMYFTNLQERSPKIERAALDGTEREVLFFSGLSKPIALALDSRLGKLFWADSDLRRIESSDLSGANRIVLEDSNILQPVGLTVFENWLYWIDKQQQMIEKIDMTGREGRTKVQARIAQLSDIHAVKELNLQEYRQHPCAQDNGGCSHICLVKGDGTTRCSCPMHLVLLQDELSCGEPPTCSPQQFTCFTGEIDCIPVAWRCDGFTECEDHSDELNCPVCSESQFQCASGQCIDGALRCNGDANCQDKSDEKNCEVLCLIDQFRCANGQCIGKHKKCDHNVDCSDKSDELDCYPTEEPAPQATNTVGSVIGVIVTIFVSGTVYFICQRMLCPRMKGDGETMTNDYVVHGPASVPLGYVPHPSSLSGSLPGMSRGKSMISSLSIMGGSSGPPYDRAHVTGASSSSSSSTKGTYFPAILNPPPSPATERSHYTMEFGYSSNSPSTHRSYSYRPYSYRHFAPPTTPCSTDVCDSDYAPSRRMTSVATAKGYTSDLNYDSEPVPPPPTPRSQYLSAEENYESCPPSPYTERSYSHHLYPPPPSPCTDSS
Consider B1, for which, in data set [1], the expression_or_secretion entry is “increases”.

B2: LRP6: N433Q (protein)
parent chain: B1 parent chain
On to B2, for which the localisation_or_trafficking entry in data set [2] is given as “no change”.

B3: LRP6: N865Q (protein)
parent chain: B1 parent chain
Consider B3, for which the localisation_or_trafficking result in data set [2] was “no change”.

B4: LRP6: N486Q (protein)
parent chain: B1 parent chain
Consider B4, for which the localisation_or_trafficking entry in data set [2] is given as “no change”.

B5: LRP6: N859Q (protein)
parent chain: B1 parent chain
As for B5, the localisation_or_trafficking result in data set [2] was “no change”.

B6: LRP6: N281Q (protein)
parent chain: B1 parent chain
B6: in data set [2], the localisation_or_trafficking result is listed as “no change”.

B7: LRP6: hB3GnT2 co-expression (protein)
parent chain: B1 parent chain
As for B7, the “localisation_or_trafficking, fold_change” value in data set [3] is “increases”.

B8: LRP6: N926Q (protein)
parent chain: B1 parent chain
Take B8: the localisation_or_trafficking entry in data set [2] is given as “no change”.
